This is an account of results in patent publication US20230330253A1.

The assay addresses human claudin 18.2 (CLDN18.2) (human). Nature of the assay: cell-based or functional assay.

Consider IgG (Control) (antibody), for which the Fluorescence, pHAb internalization on MKN45-CLDN18.2 cells, 20 nM antibody, normalized by DAR worked out at 854 and the Fluorescence, pHAb internalization on MKN45-CLDN18.2 cells, 100 nM antibody, normalized by DAR was 2700.
